This note sets out measurements from the RNAGym collection of RNA variant scans (doi:10.1073/pnas.2313332121).

First the molecules themselves.
B1: TPR t1 (parent)
chain: GACCAAUCUGCCCUCAGAGCUCGAGAACAUCUUCGGAUGCAGAGGAGGCAGGCUUCGGUGGCGCGAUAGCGCCAACGUCCUCAACCUCCAAUGCAUCCCACCACAUGAUGAUGCCUGAAGAGCCUUGGUUUUUUG

In this data set the parent is B1. Briefly: polymerase ribozyme fitness, log enrichment relative to wild type (log ratio); higher = more active; in vitro selection for triplet polymerase activity. The gist of the method:
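Each subunit of a heterodimeric triplet polymerase ribozyme was represented by a PCR-built, transcribed mutant library that underwent triplicate single-round in vitro selection with frozen incubation at −7 °C. Extended constructs were recovered by gel excision, streptavidin-bead capture and RT-PCR, and Illumina sequencing of input and output libraries kept genotypes with ≥10 input reads and ≥1 read per output. Fitness is the logarithm of genotype enrichment relative to wild-type enrichment, from inverse-variance-weighted replicate averages, with a logarithm base of 2.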
Take GACCAAUCUGGCCUCAGAGCUCGAGAACAUCUUCGGAUGCAGAGGAGGCAGGCUUCGGUGGCGCGAUAGCGCCAACGUCCUCAACCUCCAAUGCAUCCCACCACAUGAUGAUGCCUGAAGAGCCUAGGUUUUUUG: the “polymerase ribozyme fitness (log ratio)” value is -0.924.

For GACCAAUCUGCCCUCAGAGCUCGAGAACAUCUUCGGAUGCAGAGGAGGAAGGCUUCGGUGGCGCGAUAGCGCAAACGUCCUCAACCUCUAAUGCAUCCCACCACUUGAUGAUGCCUGAAGAGCCUUGGUUUUUUG, the “polymerase ribozyme fitness (log ratio)” value was -3.83.

On to GACCAAUCUGCCCUCAGAGCUCGGGAACAUCUUCGGAUGCAGAGGAGGCAGGCUUCGGUGGCGCGAUAGCGGCAACGUCCUCAACCUCCAAUGAAUCCCACCACAUGAUGAUGCCUGAAGAGCCUUGGUUUUUUG, for which the “polymerase ribozyme fitness (log ratio)” value was -2.87.

Turning to GACCAAUCUGCCCUCAGAGCUCGAGAACAUCUUCGGAUGCAGAGGAGGCAGGCUUCGGUGGCGUGAUAGCGCCAACGUCCUCAACCUCCAAUGCAUCCCACCACAUGAUGAUGCCAGAAUAGCCUUGGUUUUUUG, the “polymerase ribozyme fitness (log ratio)” value was -1.79.

With GACCAAUCUGCCCUCAGAGCUCGAGAACAUUUUCGGAUGCAGAGGAUGCAGGCUUCGGUGGCGCGAUAGCGCCAACGUCCUCAACCUCCAAUGCAUCCCACCACAUGAUGAUGCCUGAAGAGCCUUGGUUUUUUG, the “polymerase ribozyme fitness (log ratio)” value was -6.27.

Turning to GACCAAUCUGCCCUCAGAGCUCGAGAACAUCUUCGGAUGCAGAGGAGGGAGGCUUCGGUGGGGCGAUAGCGCCAACGUCCUCAACCUCCAAUGCAUCCCACCACAUGAUGAUGCCUGAAGAGCCUUGGUUUUUUG, the “polymerase ribozyme fitness (log ratio)” value was -3.46.

Turning to GACCAAUCUGCCCUCAGAGCUCGAGAACAUCUUCGGAUGCAGAGGAGGCAGGCUUCGGUGGUGCGAUACCGCCAACGUCCUCAACCUCCAAUGCAUCCCACCACAUGAUGAUGCCUGAAGAGCCUUGGUUUUUUG, the “polymerase ribozyme fitness (log ratio)” value was -3.19.

In the case of GACCAAUCUGCCCUCAGAGCUCGAGAACAUCUUCGGAUGCAGAGGAGGCAGGCUUCGGUGGCGCGAUAGGGCCAACGUCCUCAACCUCCAAUGCAUCCCACCACUUGAUGAUACCUGAAGAGCCUUGGUUUUUUG, the “polymerase ribozyme fitness (log ratio)” value is -6.59.

In the case of GACCAAUCUGCCCUCAGAGCUCGAGAACAUCUUCGGAUGCAGAGAAGGCAGGCUUCGGUGGCACGAUAGCGCCAACGUCCUCAACCUCCAAUGCAUCCCACCACAUGAUGAUGCCUGAAGAGCCUUGGUUUUUUG, the “polymerase ribozyme fitness (log ratio)” value is -1.39.

As for GACCAAUCUGCCCUCAGAGCUCGAGAACAUCUUCGGAUGCAGAGGAGGCAGGCUUCGGUGGCGCGAUAGUGCCAACGUCCUAAACCUCCAAUGCAUCCCACCACAUGAUGAUGCCUGAAGAGCCUUGGUUUUUUG, the “polymerase ribozyme fitness (log ratio)” value was -1.09.

With GACCAAUCUGCCCUCAGAGCUCGAGAACAUCUUCGGAUGCAGAGGAGGCAGGCUUCGGUGACGCGAUAGCGCCAACGUCCUCAACCUCCAAUGCAUCCCACCACAUGAUGAUGCCUGAAGAGCCUUGGUUUAUUG, the “polymerase ribozyme fitness (log ratio)” value is 0.242.

GACCAAUCUGCCCUCAGAGCUCGAGAACAUCUUCAGAUGCAGAGGAGGAAGGCUUCGGUUGCGCGAUAGCGCCAACGUCCUCAACUUCAAAUGCAUCCCACCACAUGAUGAUGCCUGAAGAGCCUUGGUUUUUUG: the “polymerase ribozyme fitness (log ratio)” value was -7.46.

On to GACCAAUCUGCUCUCAGAGCUCGAGAACAUCUGCGGAUGCAGAGGAGGCAGGCUUCGGUGGCGCGAUAGCGCCAACGUCCUCAACCUCCAAUGCAUCCCACCACAUGAUGAUGCCUGAAGAGCCUUGGUUAUUUG, for which the “polymerase ribozyme fitness (log ratio)” value is -4.55.

As for GACCAAUCUCCCCUCAGAGCUCGAGAACAUCUUCGGAUGCAGAGGAGGCAGGCUUCGGUGGCGCGAUAGCGCCAACGUCCUCAACCUCCAAUGCAUCCCACCACACCAUGAUGCCUGAAGAGCCUUGGUUUUUUG, the “polymerase ribozyme fitness (log ratio)” value is -5.64.

Take GUCCAAUCUGCCCUCAGAGCUCGAGAACAUCUUCGGAUGCAGAGUAGGCAGGCUUCGGUGGCGCGAUAGCGCCAACGUCCUCAACCUCCAAUGCAUCCCACCACAUGAUGAUGCCUGAAGAGCCUUGGUUUUUUG: the “polymerase ribozyme fitness (log ratio)” value was -3.96.

GACCAAUCUGCCCUCAGAGCUCGAGAACAGCUUCGGAUGCAGAGGAGGGAGGCUUCGGUGGCGCGAUAGCGCCAACGUCGUCAACCUCCAAUGCAUCCCACCACAUGAUGAUGCCUCAAGAGCCUUGGUUUUUUG: the “polymerase ribozyme fitness (log ratio)” value is -7.34.

For the variant GACCACUCUGCCCUCAGAGCUCGAGAACAUCUUCGGAUGCAGAGGAGGCAGGCUUCGGUGGCGCGAUAGCGCCAACGUCCUCAACCUCCAAUGCAUCCCACCACAUGAUGAUGCCUUAAGAGCCUAGGUUCUUUG, the “polymerase ribozyme fitness (log ratio)” value is -6.38.

Consider GACCAAUCUGCCCUCAGAGCUCGAGAACAUCUUCGGAUGCAGAGGAGGCAGGCUUCGGUGGCGCGAUAGCGCCAGCGUCCUCAACCUCCAAUGCAUCCCACCACAUGAUGAUGCCAUAAGAGUCUUGGUUUUUUG, for which the “polymerase ribozyme fitness (log ratio)” value was -2.78.

On to GACCAAUCUGCCCUCAGAGCUCGAGAACAUCUUCGGAUGCAUAGGAGGCAGGCUUCGGUGUCGCGAUAGCGCCAACGUCCUCAACCUCCAAUGCAUCCCACCACAUGAUGAUGCCUGAAGAGACUUGGUUUUUUG, for which the “polymerase ribozyme fitness (log ratio)” value is -0.3.

GACCAUUCUGCCCUCAGAGCUCGAGAACAUCUUCGGAUGCAGAGGAGGCAGGCUUCGGUGGCGCGAUAGCGCCAACGUCCUCAACCUCCAAUGCAUCCCACCACAUGAUUAUGCCUGAAGAGCCUUGGUUUUUUG: the “polymerase ribozyme fitness (log ratio)” value is -1.36.

GACCAAUCUGCCCUCAGAGCUCGAGAACUUCUUCGGAUGCAGAGGAGGCAGGCUUCGGUGGCGCGAUAGCGCAAACGUCCUCAACCUCCAAUGCAUCACACCACAUGAUGAUGCCUGAAGAGCCUUGGUUUUUUG: the “polymerase ribozyme fitness (log ratio)” value was -4.9.

For GACCAAUCUGCCCUCAGAGCUCGAGAACAGCUUGGGAUGCAGAGGAGGCAGGCUUAGGUGGCGCGAUAGCGCCAACGUCCUCAACCUCCAAUGCAUCCCACCACAUGAAGCUGCCUUAAGAGCCUUGGUUCCUUG, the “polymerase ribozyme fitness (log ratio)” value was -6.83.

Consider GACCAAUCUGCCCUCAGAGCUCGAGAACAUCUUCGGAUGCAGAGGAGGCAGGCUUCGGUGGCGCGAUAGCGACAACGUCCUCGACCUCCAAUGCAUCCCACCACAUGAUGAUGCCUGAAGAGCCUUGGUUUUUUG, for which the “polymerase ribozyme fitness (log ratio)” value was -0.951.

With GACCAAUCUGCCCUCAGAGCUCGAGAACAUCUUCGGAUGCAGAGGAGGCAGGCUUCGGUGACGCGAUAGCGCCAACGUCCUCAACCUCCAAUGCAUCCCACCACAUGAUGAUGACUGAAGAGCCUUGGUUUUUUG, the “polymerase ribozyme fitness (log ratio)” value was -0.372.

Turning to GACCAAUUUGCCCUCAGAGCUCGAGAACAUCUUCGGAUGUAGAGGAGGCAGACUUCGGUGGCGCGAUAGCGCCAACGUGCUCAACCUCCAAUGCAUCCCACCACAUGAUGAUGCCUGAAGAGCCUUGGUUUUUUG, the “polymerase ribozyme fitness (log ratio)” value is -0.696.

As for GACCAAUCUGCCCUCAGAGCUCGAGAACAUCUUCGGAUGCAGAUGAGGCAGGCUUCGGUGGCGCGAUAGCGCCAACGUCCUCAACCUCCAAUGCAUACCACCACAUGAUGAUGCCUGAAGAGCCUUGGUUUUUUG, the “polymerase ribozyme fitness (log ratio)” value is -6.15.

Consider GACCAAUCUGCCCUCAGAGCUCGAGAACAUCUUCGGAUGCAGAGGAGGCAGGCUUCGGUGGCGCGAUAGCGGCAACGUCCUCAACCUCCAAAGCAUCCCACCACAUGAUGAUGCCUGAAGAGCCUGGGAUUUUUG, for which the “polymerase ribozyme fitness (log ratio)” value is -6.86.

In the case of GACCAAUCUGCUCUCAGAGCUCGAGAACAUCUUCGGAUGCACAGGAGGCAGGAUUCGGUGGCGCGAUAGCUCCAACGUCCUCAACCUGCAAUGCAUCCCACCACAUGAUGAUGCCUGAAGAGCCUUGAUUUUUUU, the “polymerase ribozyme fitness (log ratio)” value is -6.24.

As for GACCAAUCUGCCGUCAGAGCUCGAGAACAUCUUCGGAUGCAGAGGAGGCAGGCUUCGGUGGCGCGAUAGCGCCAACGUUCUCAACCUCCAAUGCAUCCCACCACAUGAUGAUGCCUGAAGAGCCUUGGUUUUUUG, the “polymerase ribozyme fitness (log ratio)” value is -2.23.

Regarding GACCAAUCUGCCCUCAGAGCGCGAGAACAUCUUCGGAUGCAGAGUAGGCAGGCUUCGGUGGCGCGAUAGCGCCAACGUCCUCAACCUCCAAGGCAUCCCACCACAUGAUGAUGCCUGAAGAGCCUUGGUUUUUUG, the “polymerase ribozyme fitness (log ratio)” value is -5.73.

Take GACCAAUCUGCCCUCAGUGCUCGAGAACAUCUUCGGAUGCAGUGGAGGCAGGCUUCGGUGGCGCGAUAGCGCCAACGUCCUCGACCUCGAAUGCAUCCCACCACAUGAUUAUGCCUGAAGAGCCAUGGUUUUUUG: the “polymerase ribozyme fitness (log ratio)” value is -5.8.

For the variant GACCAAUCUGCCCUCAGAUCUCGAGAACAUCUUCGGAUGCAGUGGAUGCAGGCUUCGGUGGCGCGAUAGCGCCAACGUCCUCAACCUCCAAUGCAUCCCACCACAUGAUGAAGCCUGAAAAGCCUUGGUUUUUUG, the “polymerase ribozyme fitness (log ratio)” value was -2.08.

For GACCAAUCUGCCCUCAGAGCUCGAGAACAUCUUCGUAUGGAGAGGAGGCAGGCUUCGGUGGCGCGAUAGCGCCAACGUCCUCAACCUCCAAUGCAUCCCACCACAUGAUGAUGCCUGAAGAGCCUUGGUUUUUUG, the “polymerase ribozyme fitness (log ratio)” value is -2.33.

Regarding GACCAAUCUGCCCUCAGAGCUCGAGAACAUCUUCGGAUGCAGAGGAGGCAGGCUUCGGUGGCGCGAUAGCGCCAACGUCCUCAACCUCCAAUGCAUCCAACCACAUGAUGAUGCCUGAAGAACCUUGGUUUUUUG, the “polymerase ribozyme fitness (log ratio)” value is -5.29.

With GACCAAUCUGCCCUCAGAGCUCGAGAACAUCUUCGGAUGCAGAGGAGGCAGGCUUCGGUGGCGCGAUAGCGCCAACGUCCUCAACCUCCAAUGCAACCCACCAUAUGAUGAUGCCUGAAGAGCUUUGGUUUUUUG, the “polymerase ribozyme fitness (log ratio)” value worked out at 0.864.

With GACCAAUCUGCCCUCAGAGCUCGAGAACAUCUUCGGAUGUAGAGGAGGCAGGCUUCCGUGGCGCGAUAGCGCCAACGUCCUCAACCUCCCAUGCAUCCCACCUCAUGAUGAGGCCUGAAGAGCCUUGGUUUUUUG, the “polymerase ribozyme fitness (log ratio)” value is -6.33.

For the variant GACCAAUCUGCCCUCAGAGCUCGAGAACAUCUUCGGAUGCAGAGGAGGCAGGCUUCGGUGGCGCGAUAGCGCCAACGUCCUCAACCUCCAAUGCAUCACUCCACAUGAUGAAGCCUGAAGAGCCUUGGUUUUUUG, the “polymerase ribozyme fitness (log ratio)” value is -5.91.

Take GACCAAUCCGCCCUCAGAGCUCGAGAACAUCUUCGGAUGCAGAGGAGGCAGGCUUCGGUGGCGCGAUACCGCCAACGUCCUCAACCUCCAAUGCAUCCCACCACAUGAUGAUGCCUGAAGAGCCUUGGUUUUUUG: the “polymerase ribozyme fitness (log ratio)” value is -0.746.

In the case of GACCAAUCUGCCCUCAGAGCUCGAGAACAUCUUCGGAUGCAGAGGAGUCAGGCUUCGGUGGCGCGAUAGCGCCAACGUCCUCAACCUCCAAUGCAUCCCACCACAUGAUGAAGCCUGAAGAGCCUUGGUUUUUUG, the “polymerase ribozyme fitness (log ratio)” value turned out to be 0.632.

Regarding GACCAAUAUGCCCUCAGAGCUCGAGAAAAUCUUCGGAUGCAGAGGAGGCAGGCUUCGGUGGCUCGAUAGCGCCAACCUCCUCAACAUCCAAUGCAUCCCACCACAUGAUGACGCCUGAAGAGCCUUGGUUUUUUG, the “polymerase ribozyme fitness (log ratio)” value was -6.46.

Consider GACCUAUCUGCCCUCAGAGCUCGAGAACAUCUUCGGAUGCAGAGGAGGCAGGCUUGGGUGGCGCGAUAGCGCCAACGUCCUCAACCUCCAAUGCAUCCCACCACAUGAUGAUGUCUGAAGAGCCUUGGUUUUUUG, for which the “polymerase ribozyme fitness (log ratio)” value is -4.21.

With GACCUAUCUGCCCUCAGAGCUCGAGAACAUCUUCGGAUGCAGAGGAGGCAGGCUUCGGUGGCGCGAUAGGGCCAACGUCCUCAACCUCCAAUGCAUCCCACCACAUGAUGAUGCCUGAAGAGCCUUGGUUUUUUG, the “polymerase ribozyme fitness (log ratio)” value was -2.83.
